Results as given in patent US20240383958A1, “APELIN RECEPTOR AGONISTS AND USES THEREOF” (VISTERRA, INC., priority 2023, published 2024).
Changes are numbered by the printed parent chain. In names and notes the source's numbering stands.

T1: apelin receptor (Homo sapiens, UniProt P35414)
T1 construct: host or cells: human heart tissue
T1 sequence (P35414 1-380): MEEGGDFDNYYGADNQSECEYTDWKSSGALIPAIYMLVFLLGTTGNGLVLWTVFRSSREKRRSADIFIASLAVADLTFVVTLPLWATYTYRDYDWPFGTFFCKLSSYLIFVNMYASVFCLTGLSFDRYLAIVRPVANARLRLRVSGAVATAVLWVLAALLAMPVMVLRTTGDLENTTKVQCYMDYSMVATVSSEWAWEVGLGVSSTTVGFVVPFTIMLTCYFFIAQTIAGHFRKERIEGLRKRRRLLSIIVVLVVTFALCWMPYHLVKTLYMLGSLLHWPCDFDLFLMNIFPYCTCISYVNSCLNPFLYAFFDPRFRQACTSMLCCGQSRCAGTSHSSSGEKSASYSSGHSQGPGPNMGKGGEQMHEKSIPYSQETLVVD

T2: apelin receptor (AGTRL1) (Homo sapiens, UniProt P35414)
T2 construct: host or cells: CHO-K1
T2 sequence (P35414 1-380): T1 sequence (P35414 1-380)

B1: ELA-D: Fc-linker fusion of elabela analogue KLRKHNCLQRRCMPLHQRVPFP (S17Q) (protein)
chain: MRAWIFFLLCLAGRALADKTHTSPPSPAPEAAGGPSVFLFPPKPKDTLMISRTPEVTCVVVDVSHEDPEVKFNWYVDGVEVHNAKTKPREEQYNSTYRVVSVLTVLHQDWLNGKEYKCKVSNKALPAPIEKTISKAKGQPREPQVYTLPPSREEMTKNQVNLTCLVKGFYPSDIAVEWESNGQPENNYKTTPPVLDSDGSFFLNSTLTVDKSRWQQGNVFSCSVMHEALHNHYTQKSLSLSPGKGGGGSGGGGSGGGGSKLRKHNCLQRRCMPLHQRVPFP
B2: ELA-J: Fc-linker fusion of elabela analogue KLRKHNCLQERCMPLHSRVPFP (R10E) (protein)
chain: B1 chain with R269E, Q276S
B3: ELA-E: Fc-linker fusion of elabela analogue KLRKHNCLQRRCMPLHRRVPFP (S17R) (protein)
chain: B1 chain with Q276R

How the values were obtained:
apelin receptor = target: T1, apelin receptor; conditions: human heart; cited from earlier work
[1] = Proteolysis during production detected using mass spectroscopy; type: physicochemical; conditions: proteolytic stability
Source text: Proteolysis during production was detected using mass spectroscopy, which provides insights into the proteolytic stability of the apelin receptor agonists.

apelin receptor (AGTRL1) = target: T2, apelin receptor (AGTRL1); test: PathHunter beta-arrestin signaling assay; type: cell-based; conditions: PathHunter CHO-K1 AGTRL1 β-arrestin cells
Method: In this example, commercially available HitHunter® cAMP assay was used to determine the effect of apelin receptor agonists on Gai signaling, measured cAMP depletion. Next, commercially available PathHunter® beta-arrestin assay was used to determine the effect of apelin receptor agonists on beta-arrestin signaling. Additionally, the effect of apelin receptor agonists on ERK signaling was determined.
In a 384-well plate (Corning #3897), PathHunter® CHO-K1 AGTRL1 β-arrestin cells (Eurofins DiscoverX #93-0250C2) were seeded at 5×10^3 cells/well in 20 μL AssayComplete Cell Plating 2 Reagent (Eurofins DiscoverX #93-0563R2A) and were incubated overnight at 37° C. with 5% CO2. On the following day, the plate was treated with 5 μL/well of compounds serially diluted in 1×PBS+0.1% BSA buffer and was incubated for 1.5 hr at 37° C. with 5% CO2. Then, 12.5 μL/well of detection solution was added, prepared as instructed in the PathHunter® Detection Kit (Eurofins DiscoverX #93-0001), the plate was wrapped in foil, and was incubated at room temperature. Plates were read after 1-2 hr of incubation on a standard luminescence plate reader. In this assay, low levels of β-arrestin in cells were directly related to low luminescence signal. Using Four Parameter Logistic Regression for curve fitting, the raw data file was processed into S-shaped dose-response curves from which values, such as the EC50, Hill Slope, and Emax, were quantified.

APJ-eGFP fusion protein = test: Internalization assay, CHO-M1 cells expressing APJ-eGFP, high-content imaging; type: cell-based; design: key: 0: No Internalization; >1000; 2: 100-1000; 3: 10-100; 4: <10; conditions: lowest concentration at which maximum internalization was observed; 0.914 nM to 2000 nM
Method: In this example, the internalization of exemplary apelin receptor agonist was assessed. CHO-M1 cells expressing an APJ-eGFP fusion protein were stained and plated in a 96-well plate. Apelin receptor agonists were serially diluted and added to the wells at concentrations ranging from 0.914 nM to 2000 nM. The cells were later imaged using an Operetta CLS™ high-content analysis system. APJ-eGFP signal was measured in the membrane and cytoplasmic region, and the ratio of membrane signal to total signal was calculated (E ratio). An internalization score was assigned based on the lowest concentration of the compound at which maximum internalization was observed. The internalization score for each apelin receptor agonist was plotted against the EC50 values for cAMP signaling and beta-arrestin signaling as shown in FIG. 2 and FIG. 3.

| Molecule | affinity for the apelin receptor (apelin receptor) | Proteolysis During Production? [1] | beta-Arrestin EC50 (nM) Exp. 1 (apelin receptor (AGTRL1)) | Internalization Score (APJ-eGFP fusion protein) | beta-Arrestin EC50 (nM) Exp. 2 (apelin receptor (AGTRL1); Exp. 2) |
| --- | --- | --- | --- | --- | --- |
| elabela-21 | nanomolar affinity |  |  |  |  |
| B1 |  | No | Weak | 1 (>1000) |  |
| B2 |  | Yes |  |  | Weak |
| B3 |  | No | Weak | 0 |  |
